Data from FireProtDB (doi:10.1006/jmbi.1993.1336).

Details: Aspergillus oryzae (strain ATCC 42149 / RIB 40), GdnHCl, Fluorescence, reversible: yes, whole UniProt chain shown
[1] = pH 5, 25 °C, Sodium acetate 0.1 M

B1: Guanyl-specific ribonuclease T1 wild type, P00651 (protein)
chain: MMYSKLLTLTTLLLPTALALPSLVERACDYTCGSNCYSSSDVSTAQAAGYQLHEDGETVGSNSYPHKYNNYEGFDFSVSSPYYEWPILSSGDVYSGGSPGADRVVFNENNQLAGVITHTGASGNNFVECT
For B1, the denaturant m value [1] was 2.75 kcal/mol/M, the “denaturant midpoint (higher = more stable)” value (shortened to “denaturant midpoint”) [1] was 3.64 M and the unfolding free energy [1] was 10 kcal/mol. For the same protein, the denaturant m value (pH 8, 10 °C, Tris 0.1 M) was 2.63 kcal/mol/M, the “denaturant midpoint” value (pH 8, 10 °C, Tris 0.1 M) was 3.21 M and the unfolding free energy (pH 8, 10 °C, Tris 0.1 M) was 8.44 kcal/mol. The denaturant m value (pH 8, 25 °C, Tris 0.1 M) was 2.46 kcal/mol/M, the “denaturant midpoint” value (pH 8, 25 °C, Tris 0.1 M) was 2.4 M and the unfolding free energy (pH 8, 25 °C, Tris 0.1 M) was 5.91 kcal/mol.
